{"source": "paper PMC6980381", "about": "(Science (New York, N.Y.), 2019)", "binders": {"B1": {"name": "Ufd1 (untagged, of the Ufd1/Npl4 cofactor complex) (natural protein, S. cerevisiae, UniProt P53044 1-361, looked up)", "chain": "MFSGFSSFGGGNGFVNMPQTFEEFFRCYPIAMMNDRIRKDDANFGGKIFLPPSALSKLSMLNIRYPMLFKLTANETGRVTHGGVLEFIAEEGRVYLPQWMMETLGIQPGSLLQISSTDVPLGQFVKLEPQSVDFLDISDPKAVLENVLRNFSTLTVDDVIEISYNGKTFKIKILEVKPESSSKSICVIETDLVTDFAPPVGYVEPDYKALKAQQDKEKKNSFGKGQVLDPSVLGQGSMSTRIDYAGIANSSRNKLSKFVGQGQNISGKAPKAEPKQDIKDMKITFDGEPAKLDLPEGQLFFGFPMVLPKEDEESAAGSKSSEQNFQGQGISLRKSNKRKTKSDHDSSKSKAPKSPEVIEID"}}, "target": "T1, Npl4 (untagged, of the Ufd1/Npl4 cofactor complex) (S. cerevisiae, UniProt P33755 1-580)", "T1 sequence": "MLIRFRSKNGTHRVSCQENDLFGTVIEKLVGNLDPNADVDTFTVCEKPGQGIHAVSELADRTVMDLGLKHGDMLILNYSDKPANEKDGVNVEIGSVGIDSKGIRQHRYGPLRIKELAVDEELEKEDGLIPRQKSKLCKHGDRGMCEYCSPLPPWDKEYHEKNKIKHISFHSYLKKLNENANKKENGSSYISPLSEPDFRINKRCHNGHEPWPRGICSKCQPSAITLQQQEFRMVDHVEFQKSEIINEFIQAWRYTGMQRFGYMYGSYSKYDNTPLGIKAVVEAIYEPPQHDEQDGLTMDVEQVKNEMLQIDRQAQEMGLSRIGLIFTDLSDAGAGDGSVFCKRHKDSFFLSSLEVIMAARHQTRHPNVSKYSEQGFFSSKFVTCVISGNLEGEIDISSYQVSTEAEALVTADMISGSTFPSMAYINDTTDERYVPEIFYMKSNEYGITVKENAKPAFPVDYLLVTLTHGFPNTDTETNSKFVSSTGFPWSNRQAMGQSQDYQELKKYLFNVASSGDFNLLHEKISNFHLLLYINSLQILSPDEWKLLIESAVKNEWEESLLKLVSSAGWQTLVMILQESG", "test": "cryo-EM structure"}
{"binder": "B1", "values": [{"measurement": "binding result", "value": "binds"}]}
